The source of these data is the supplement of paper PMC7877785.

± gives the uncertainty stated by the source.

The data set is described as follows: self-splicing fitness, log relative to wild type (ln ratio); higher = more splicing; Tetrahymena group I intron in knt gene, E. coli kanamycin selection, DiMSum; sequences stand for … in CUCUCU…GGAGGGAAAAGUUAUCAGGCAUGCACCUGGUAGCUAGUCUUUAAACCAAUAGAUUGCAUCGGUUUAAAAGGCAAGACCGUCAAAUUGCGGGAAAGGGGUCAACAGCCGUUCAGUACCAAGUCUCAGGGGAAACUUUGAGAUGGCCUUGCAAAGGGUAUGGUAAUAAGCUGACGGACAUGGUCCUAACCACGCAGCCAAGUCCUAAGUCAACAGAUCUUCUGUUGAUAUGGAUGCAGUUCACAGACUAAAUGUCGGUCGGGGAAGAUGUAUUCUUCUCAUAAGAUAUAGUCGGACCUCUCCUUAAUGGGAGCUAGCGGAUGAAGUGAUGCAACACUGGAGCCGCUGGGAACUAAUUUGUAUGCGAAAGUAUAUUGAUUAGUUUUGGAGUACUCGUGGUCG
The method in brief: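 Pooled colonies went to amplicon sequencing on an Illumina HiSeq 2500 after six replicate transformations. The plates were LB agar with 100 μg/mL carbenicillin, 50 μM IPTG and 0.2% rhamnose, with or without 25 μg/mL kanamycin, incubated overnight at 37°C or 30°C. The E. coli BL21(DE3) library had all eight P1ex-region intron nucleotides randomised, the intron placed in the knt kanamycin-resistance gene on pET-22b(+). DiMSum fitness is the error-weighted combination of replicate fold changes, kanamycin against none, normalised to wild type.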

Turning to CGCAAGCAAUAUUACGGGCG, the “self-splicing fitness (ln)” value reads like this: (30 °C) -4.43 ± 0.19; (37 °C) -2.76 ± 0.2.

On to CGCAAGCAAUAUUACGGGGU, for which the “self-splicing fitness (ln)” value was -4.04 ± 0.18 (30 °C) and -1.33 ± 0.12 (37 °C). Take CGCAAGCAAUAUUACGUAUU: the “self-splicing fitness (ln)” value reads like this: (30 °C) -3.08 ± 0.21; (37 °C) -3.5 ± 0.35. As to CGCAAGCAAUAUUACGUCAU, the “self-splicing fitness (ln)” value is, setting by setting: (30 °C) -4.26 ± 0.24; (37 °C) -2.4 ± 0.17. For CGCAAGCAAUAUUACGUCCG, the “self-splicing fitness (ln)” value was -0.62 ± 0.12 (30 °C) and 0.53 ± 0.2 (37 °C). For CGCAAGCAAUAUUACGUCUC, the “self-splicing fitness (ln)” value is, setting by setting: (30 °C) -3.36 ± 0.18; (37 °C) -1.49 ± 0.15. For the sequence CGCAAGCAAUAUUACGUCUU, the “self-splicing fitness (ln)” value is -4.05 ± 0.26 (30 °C) and -3.12 ± 0.22 (37 °C).

As for CGCAAGCAAUAUUACGUGGA, the “self-splicing fitness (ln)” value runs as follows: (30 °C) -3.37 ± 0.16; (37 °C) -1.6 ± 0.095. For the sequence CGCAAGCAAUAUUACGUGUG, the “self-splicing fitness (ln)” value is -4.31 ± 0.14 (30 °C) and -2.56 ± 0.11 (37 °C).

Turning to CGCAAGCAAUAUUACGUUGA, the “self-splicing fitness (ln)” value by setting is: (30 °C) -2.6 ± 0.13; (37 °C) -2.02 ± 0.15. CGCCAGCAAUAUUACGAACG: the “self-splicing fitness (ln)” value is, setting by setting: (30 °C) -0.982 ± 0.097; (37 °C) 0.0565 ± 0.12. As to CGCCAGCAAUAUUACGACAC, the “self-splicing fitness (ln)” value is -2.92 ± 0.25 (30 °C) and -1.65 ± 0.26 (37 °C).

Consider CGCCAGCAAUAUUACGACCG, for which the “self-splicing fitness (ln)” value runs as follows: (30 °C) -0.693 ± 0.083; (37 °C) -0.103 ± 0.12.

As to CGCCAGCAAUAUUACGAGAA, the “self-splicing fitness (ln)” value is -2.14 ± 0.42 (30 °C) and -2.75 ± 0.38 (37 °C). The matching figures for CGCCAGCAAUAUUACGAGUG: -2.41 ± 0.07 and -1.59 ± 0.11. CGCCAGCAAUAUUACGAUAC: the “self-splicing fitness (ln)” value was -3.42 ± 0.22 (30 °C) and -3.13 ± 0.24 (37 °C). Take CGCCAGCAAUAUUACGAUAU: the “self-splicing fitness (ln)” value was -3.92 ± 0.22 (30 °C) and -2.14 ± 0.2 (37 °C). For CGCCAGCAAUAUUACGCCGC, the “self-splicing fitness (ln)” value was -2.72 ± 0.21 (30 °C) and -1.39 ± 0.39 (37 °C). Regarding CGCCAGCAAUAUUACGCUAG, the “self-splicing fitness (ln)” value (30 °C) was -2.94 ± 0.16 and the “self-splicing fitness (ln)” value (37 °C) is -2.4 ± 0.23. For CGCCAGCAAUAUUACGGACG the same measures were -4.63 ± 0.31 and -2.95 ± 0.28.

As to CGCCAGCAAUAUUACGGAUC, the “self-splicing fitness (ln)” value was -1.24 ± 0.22 (30 °C) and -1.38 ± 0.47 (37 °C). Regarding CGCCAGCAAUAUUACGGCUA, the “self-splicing fitness (ln)” value was -0.576 ± 0.061 (30 °C) and -0.172 ± 0.068 (37 °C). In the case of CGCCAGCAAUAUUACGGGCC, the “self-splicing fitness (ln)” value (30 °C) was -3.13 ± 0.21 and the “self-splicing fitness (ln)” value (37 °C) is -1.72 ± 0.2. On to CGCCAGCAAUAUUACGGGGC, for which the “self-splicing fitness (ln)” value (30 °C) was -4 ± 0.19 and the “self-splicing fitness (ln)” value (37 °C) was -2.55 ± 0.16. Consider CGCCAGCAAUAUUACGGUCC, for which the “self-splicing fitness (ln)” value by setting is: (30 °C) -0.387 ± 0.13; (37 °C) -0.161 ± 0.16. For CGCCAGCAAUAUUACGGUGU the same measures were -2.27 ± 0.12 and -2.84 ± 0.26. Consider CGCCAGCAAUAUUACGUACG, for which the “self-splicing fitness (ln)” value runs as follows: (30 °C) -1.6 ± 0.098; (37 °C) -0.916 ± 0.12. On to CGCCAGCAAUAUUACGUAGG, for which the “self-splicing fitness (ln)” value (30 °C) is -2.47 ± 0.085 and the “self-splicing fitness (ln)” value (37 °C) is -1.32 ± 0.1. As for CGCCAGCAAUAUUACGUCAC, the “self-splicing fitness (ln)” value is, setting by setting: (30 °C) -3.7 ± 0.24; (37 °C) -2 ± 0.24. Consider CGCCAGCAAUAUUACGUCCA, for which the “self-splicing fitness (ln)” value (37 °C) was -1.45 ± 0.39. Regarding CGCCAGCAAUAUUACGUGAU, the “self-splicing fitness (ln)” value was -3.42 ± 0.088 (30 °C) and -2.27 ± 0.11 (37 °C).

Take CGCCAGCAAUAUUACGUUUG: the “self-splicing fitness (ln)” value runs as follows: (30 °C) -1.17 ± 0.049; (37 °C) -0.629 ± 0.072. For CGCGAGCAAUAUUACGAACU the same measures were -1.75 ± 0.18 and -0.234 ± 0.23. As to CGCGAGCAAUAUUACGACAA, the “self-splicing fitness (ln)” value by setting is: (30 °C) -2.72 ± 0.34; (37 °C) -2.28 ± 0.33.

As for CGCGAGCAAUAUUACGACAU, the “self-splicing fitness (ln)” value is -3.853 ± 0.03 (30 °C) and -2.77 ± 0.043 (37 °C). As to CGCGAGCAAUAUUACGACGG, the “self-splicing fitness (ln)” value is -0.512 ± 0.1 (30 °C) and -0.452 ± 0.11 (37 °C). As for CGCGAGCAAUAUUACGACUA, the “self-splicing fitness (ln)” value runs as follows: (30 °C) -2.42 ± 0.23; (37 °C) -2.64 ± 0.25. Turning to CGCGAGCAAUAUUACGAGUA, the “self-splicing fitness (ln)” value (30 °C) is -3.55 ± 0.32 and the “self-splicing fitness (ln)” value (37 °C) was -2.61 ± 0.27.
